According to US20230203471A1, “METHOD AND PLATFORM FOR DISRUPTING INTRACELLULAR MICROTUBULES” (National Tsing Hua University, priority 2021, published 2023):

Legend:
[1] = target: intracellular microtubules (MTs)
[2] = target: MT-binding domain of ensconsin-cyan fluorescent protein-FKBP-rapamycin binding domain (EMTB-CFP-FRB) (Artificial Sequence); assay: FRET live-cell imaging in co-transfected HeLa cells, 100 nM rapamycin
[3] = system: EMTB-YFP-CIBN-labeled MTs in COS7 cells; assay: Blue-light-induced recruitment of Cry2 proteins onto EMTB-YFP-CIBN-labeled MTs and MT disassembly; type: cell-based, African green monkey; conditions: COS7 cells
Description: The procedures of photostimulation are as follows. COS7 cells were plated on poly(d-lysine)-coated coverslips and cultured in six-well plates (Thermo Scientific) for 48 hr. Before imaging, cells were incubated with SPY650-tubulin (1000-fold dilution; Spirochrome) at 37° C. for 1 hr. Local photostimulation was carried out with a fluorescence microscope (Nikon) equipped with a digital micromirror device, polygon 400 (MIGHTEX), and a 488-nm light source. Cells were illuminated with the blue light (5 sec on/1 sec off; 1.6 nW/µm^2) for the indicated duration. The mCherry and SPY650-tubulin were simultaneously imaged during photostimulation using Nikon element AR software.
The inventors next tried to use an optogenetic system to trigger MT disassembly in a sub-cellular region of interest during a specific period of time. Cryptochrome 2 (Cry2) (SEQ ID NO:14) and CIBN (N-terminal 170 amino acids of CIB1) (SEQ ID NO:15), two blue light-sensitive dimerizing partners, were used in our MT-manipulating system. Cry2, which was tagged with the red fluorescent protein mCherry (mCh—Cry2), was rapidly translocated onto EMTB—YFP—CIBN-labeled MTs only in regions illuminated with light (T½ = 34.6 ± 7.58 sec) and dissociated from MTs to the cytosol when the light was off (T½ = 28.2 ± 4.88 sec; see FIGS. 6A and 6B).
FIGS. 6A and 6B show using light to disassemble MTs in a reversible and location-specific manner. In FIG. 6A, COS7 cells co-transfected with EMTB—YFP—CIBN and mCh—Cry2 (red) were incubated with SPY650-tubulin (SPY650-tub) to visualize MTs; the cells were illuminated by blue light within a specified region (indicated by the dotted circle) for the indicated time period; scale bar, 10 µm.
The inventors then used light to control spastin-mediated MT disassembly in a spatially and temporally specific manner. dNSpastin3Q tagged with mCh-Cry2 was co-expressed with EMTB—YFP—CIBN in COS7 cells. MTs were labeled with SPY650-tubulin in these experiments.
FIGS. 6C and 6D show using light to disassemble MTs in a reversible and location-specific manner. In FIG. 6C, COS7 cells co-transfected with EMTB-YFP-CIBN and dNSpastin3Q-mCh—Cry2 were incubated with SPY650-tubulin to visualize MTs; the cells were illuminated by blue light as in FIG. 6A; scale bar, 10 µm. […] Data are shown as the mean ± S.E.M.

[4] = target: EMTB-YFP-CIBN (Artificial Sequence); assay: live-cell imaging in co-transfected COS7 cells, after blue light
Sequence of EMTB-YFP-CIBN (Artificial Sequence) (chain, as listed by the source): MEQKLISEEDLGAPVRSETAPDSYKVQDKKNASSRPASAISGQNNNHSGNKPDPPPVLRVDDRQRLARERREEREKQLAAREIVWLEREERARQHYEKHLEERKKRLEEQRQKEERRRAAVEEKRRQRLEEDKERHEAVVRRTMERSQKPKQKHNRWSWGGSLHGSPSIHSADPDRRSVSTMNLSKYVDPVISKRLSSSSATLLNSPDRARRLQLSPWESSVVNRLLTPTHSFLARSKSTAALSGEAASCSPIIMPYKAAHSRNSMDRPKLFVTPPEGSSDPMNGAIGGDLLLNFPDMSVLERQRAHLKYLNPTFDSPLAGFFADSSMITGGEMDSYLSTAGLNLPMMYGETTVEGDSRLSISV

[5] = target: EMTB-YFP-CIBN (Artificial Sequence); assay: live-cell imaging in co-transfected COS7 cells, local blue light
[6] = system: centrosomes in HeLa cells; assay: Effect of MT disruption treatment on PACT-labeled centrosomes in HeLa cells; type: cell-based; conditions: MT disruption treatment for 1 hr
Description: In FIG. 5O, HeLa cells co-transfected with EMTB—CFP—FRB (blue), dNSpastin3Q-YFP-FKBP (green), and PACT-mCh (a centrosomal marker; red) were treated with rapamycin (100 nM) and imaged; dotted lines indicate the cell boundary; insets show higher-magnification images of the centrosome regions; scale bar, 10 µm. […] Data are shown as the mean ± S.E.M.

[7] = system: ciliary axonemes and primary cilia in NIH3T3 cells; assay: Disruption of primary cilia in serum-starved NIH3T3 cells (live-cell imaging); type: cell-based, mouse; conditions: G0 NIH3T3 cells, CFP-FRB-MAP4m, rapamycin 100 nM
Description: The procedures of cell culture and transfection are as follows. African green monkey kidney cell line COS7 (CRL-1651), cervical cancer cell line HeLa (CCL-2), human osteosarcoma cell line U2OS (HTB-96), human embryonic kidney cell line HEK293T (CRL-3216), and mouse embryonic fibroblasts NIH3T3 cells (CRL-1658) were maintained at 37° C., 5% CO2, and 95% humidity in Dulbecco’s modified Eagle’s medium (DMEM) supplemented with 10% fetal bovine serum (FBS), and penicillin and streptomycin (Corning). To induce ciliogenesis, NIH3T3 cells were serum starved for 24 hr. COS7 cells were transfected with plasmid DNAs by using TurboFect transfection reagents (Thermo Fisher). HeLa, U2OS, HEK293T, and NIH3T3 cells were transfected with FuGENE HD (Promega). Transfected cells were incubated for 24-48 hr prior to imaging and other experiments.
The procedures of live-cell imaging are as follows. Live transfected cells cultured on poly(d-lysine)-coated glass coverslips (Hecht Assistent) were treated with either 100 nM rapamycin for rapid induction of protein dimerization and translocation or MT-targeting agents (10 µM nocodazole or 500 µM colchicine) during imaging. Live-cell imaging was conducted on a Nikon T1 inverted fluorescence microscope (Nikon) with a 60× oil objective (Nikon), a Prime camera (Photometrics), and 37° C., 5% CO2 heat stage (Live Cell Instrument). […]

[8] = system: mitotic spindles and intercellular bridges in HeLa cells; assay: Disruption of mitotic spindles and intercellular bridges in synchronized HeLa cells; type: cell-based; conditions: CFP-FRB-MAP4m, rapamycin 100 nM
Description: The procedures of cell synchronization are as follows. Plasmid DNA (i.e., DNA construct) transfection was carried out 20-24 hr prior to cell cycle synchronization. For synchronization, HeLa cells were treated with 2 mM thymidine (Sigma) for 16-18 hr to induce arrest at G1/S phase and then were treated with 2.5 ng/ml RO3306 (a selective ATP-competitive inhibitor of CDK1)(Sigma) for 12 hr to induce arrest at G2/M phase. After being washed with warm DMEM, cells were incubated with DMEM and 10% FBS at 37° C., 5% CO2 for 30-60 min to enrich the population of metaphase and telophase cells.
FIGS. 5K to 5N show rapid disruption of mitotic spindles and intercellular bridges. In FIG. 5K, HeLa cells co-transfected with H2B—mCherry (H2B—mCh; a chromosome marker; red), CFP—FRB—MAP4m (a marker of mitotic spindles; blue), and dNSpastin3Q-YFP-FKBP (green) were synchronized in metaphase and treated with rapamycin (100 nM) to induce dNSpastin3Q-YFP-FKBP recruitment to mitotic spindles; scale bar, 10 µm. In FIG. 5L, HeLa cells co-transfected with H2B—mCherry (red), CFP—FRB—MAP4m (intercellular bridges; blue), and dNSpastin3Q-YFP-FKBP (green) were treated with rapamycin (100 nM) to induce dNSpastin3Q-YFP-FKBP recruitment to intercellular bridges; arrows indicate the intercellular bridges; scale bar, 10 µm. […] Data are shown as the mean ± S.E.M. Dotted lines indicate the cell boundaries.

spastin = target: T1, spastin (Mus musculus, UniProt Q9QYY8, K308Q/K309Q/K310Q); assay: Reversal of MT disruption by spastin inhibition and MT regrowth in HeLa cells; type: cell-based; conditions: regrowth in cytosol (acentrosome) after spastazoline
T1 construct: expressed in transfected cells; host or cells: HeLa (CCL-2)
T1 sequence (Q9QYY8 with tags, fused parts or gaps K308Q/K309Q/K310Q): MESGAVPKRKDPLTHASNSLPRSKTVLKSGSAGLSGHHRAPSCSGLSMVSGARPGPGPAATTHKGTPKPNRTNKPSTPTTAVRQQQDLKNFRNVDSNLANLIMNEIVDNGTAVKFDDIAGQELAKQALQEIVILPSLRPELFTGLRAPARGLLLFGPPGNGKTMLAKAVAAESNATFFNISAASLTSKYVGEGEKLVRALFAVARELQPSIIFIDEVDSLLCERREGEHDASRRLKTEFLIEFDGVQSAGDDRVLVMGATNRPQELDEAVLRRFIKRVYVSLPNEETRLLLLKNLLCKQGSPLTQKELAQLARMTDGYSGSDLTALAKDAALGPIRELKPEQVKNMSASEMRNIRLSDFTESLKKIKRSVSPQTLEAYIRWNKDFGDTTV
Description: FIGS. 2S to 2U show inhibition of spastin activity reverses MT disruption. In FIG. 2S, HeLa cells co-transfected with EMTB—CFP—FRB (black) and dNSpastin3Q-YFP-FKBP (green) were pre-treated with rapamycin for 28 min to induce acute MT disassembly; spastazoline (10 µM), a spastin inhibitor, was then added to the cultures to halt the MT disruption system; arrows indicate the centrosome-derived MTs; scale bar, 10 µm. […] Data (red) are shown as the mean ± SD. A Student’s t-test was performed to generate the indicated p-value.
Intriguingly, nascent MTs from the fragments derived from dNspastin3Q-mediated cleavage assembled at a polymerization rate of 0.92 ± 0.04 µm/sec, which was slightly slower than the regrowth rate of 1.17 ± 0.07 µm/sec for MTs from centrosomes (see FIG. 2U). […] In particular, microtubule filaments are composed of microtubule molecules. If they are only disassembled into microtubule molecules and the raw materials are still there, they would have the opportunity to quickly assemble them back. But if the microtubule molecules are degraded and the raw materials are gone, they can’t be quickly reassembled. In summary, rapid recruitment of dNSpastin3Q-YFP-FKBP onto MTs efficiently triggered MT disassembly in living cells upon dimerization induction.

Sequence of MT-binding domain of ensconsin-cyan fluorescent protein-FKBP-rapamycin binding domain (EMTB-CFP-FRB) (Artificial Sequence) (chain, as listed by the source): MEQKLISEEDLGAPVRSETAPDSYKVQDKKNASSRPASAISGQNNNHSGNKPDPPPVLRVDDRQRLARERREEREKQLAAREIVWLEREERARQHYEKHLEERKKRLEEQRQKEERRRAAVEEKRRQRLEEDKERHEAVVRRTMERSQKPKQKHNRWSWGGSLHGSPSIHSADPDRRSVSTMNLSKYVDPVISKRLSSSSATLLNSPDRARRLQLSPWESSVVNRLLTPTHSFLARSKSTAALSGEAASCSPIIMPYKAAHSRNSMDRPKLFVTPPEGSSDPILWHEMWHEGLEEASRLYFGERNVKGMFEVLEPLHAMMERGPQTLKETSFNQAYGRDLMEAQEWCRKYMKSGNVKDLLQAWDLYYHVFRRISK

Molecule: dNSpastin-YFP-FKBP-C2 domain of Lactadherin (dNSpastin-YFP-FKBP-C2Lact) (enzyme)
- half time of MT disruption (MT filament area) [1]: 53.1 min
- T½ of translocation [2]: 55.4 s

B1: Cry2 tagged with the red fluorescent protein mCherry (mCh-Cry2) (protein)
chain: MKMDKKTIVWFRRDLRIEDNPALAAAAHEGSVFPVFIWCPEEEGQFYPGRASRWWMKQSLAHLSQSLKALGSDLTLIKTHNTISAILDCIRVTGATKVVFNHLYDPVSLVRDHTVKEKLVERGISVQSYNGDLLYEPWEIYCEKGKPFTSFNSYWKKCLDMSIESVMLPPPWRLMPITAAAEAIWACSIEELGLENEAEKPSNALLTRAWSPGWSNADKLLNEFIEKQLIDYAKNSKKVVGNSTSLLSPYLHFGEISVRHVFQCARMKQIIWARDKNSEGEESADLFLRGIGLREYSRYICFNFPFTHEQSLLSHLRFFPWDADVDKFKAWRQGRTGYPLVDAGMRELRATGWMHNRIRVIVSSFAVKFLLLPWKWGMKYFWDTLLDADLECDILGWQYISGSIPDGHELDRLDNPALQGAKYDPEGEYIRQWLPELARLPTEWIHHPWDAPLTVLKASGVELGTNYAKPIVDIDTARELLAKAISRTREAQIMIGAA
- T½ of translocation onto EMTB-YFP-CIBN-labeled MTs in illuminated regions ([3]; blue light on): 34.6 ± 7.58 s
- T½ of dissociation from MTs to the cytosol ([3]; light off): 28.2 ± 4.88 s
- light-induced MT disassembly ([3]; local blue light illumination, SPY650-tubulin): did not lead to MT disassembly
- T½ of dissociation from MTs when the light was off [4]: 28.2 s
- T½ of translocation onto MTs under light [5]: 34.6 s

B2: dNSpastin3Q: truncated spastin with three residues mutated to three glutamines, SEQ ID NO:6; used as tagged fusions (protein)
chain: T1 sequence (Q9QYY8 with tags, fused parts or gaps K308Q/K309Q/K310Q)
modifications: dNSpastin3Q
notes: used as tagged fusions
- disruption of centrosomes [6]: did not disrupt centrosomes
- time to disassembly of axonemes and primary cilia [7]: ≤ 15 min
- disruption of mitotic spindles and intercellular bridges [8]: quickly disrupted these MT-based structures
- polymerization rate of nascent MTs from fragments derived from cleavage (spastin): 0.92 ± 0.04 µm/sec
